In PMC3535368, “Heme orientation modulates histidine dissociation and ligand binding kinetics in the hexacoordinated human neuroglobin” (Journal of Biological Inorganic Chemistry, 2012):
Numbering of substitutions follows the chain as printed. Read-outs that look alike come from different tables or passages of the source.

B1: WTox (A isomer): oxidized wild-type human Ngb (Cys46-Cys55 disulfide bridge), A heme conformer (protein, UniProt Q9NPG2 1-151, looked up)
Neuroglobin: MERPEPELIRQSWRAVSRSPLEHGTVLFARLFALEPDLLPLFQYNCRQFSSPEDCLSSPEFLDHIRKVMLVIDAAVTNVEDLSSLEEYLASLGRKHRAVGVKLSSFSTVGESLLYMLEKCLGPAFTPATRAAWSQLYGAVVQAMSRGWDGE
modifications: oxidized, heme A isomer
B2: C120Sred (B isomer) (protein, UniProt Q9NPG2 1-151, looked up, variant C120S)
Neuroglobin: B1 Neuroglobin with C120S
modifications: reduced, heme B isomer
B3: C120Sox (A isomer) (protein, UniProt Q9NPG2 1-151, looked up, variant C120S)
Neuroglobin: B1 Neuroglobin with C120S
modifications: oxidized, heme A isomer
B4: WTred (A isomer): DTT-reduced wild-type human Ngb, A heme conformer (protein, UniProt Q9NPG2 1-151, looked up)
Neuroglobin: B1 Neuroglobin
modifications: DTT-reduced, heme A conformer
B5: C120Sox (B isomer) (protein, UniProt Q9NPG2 1-151, looked up, variant C120S)
Neuroglobin: B1 Neuroglobin with C120S
modifications: oxidized, heme B isomer
B6: WTox (B isomer): oxidized wild-type human Ngb (Cys46-Cys55 disulfide bridge), B heme conformer (protein, UniProt Q9NPG2 1-151, looked up)
Neuroglobin: B1 Neuroglobin
modifications: oxidized, heme B isomer
B7: human Ngb: human neuroglobin, hexacoordinated hemoprotein of brain and retina (protein, UniProt Q9NPG2 1-151, looked up)
Neuroglobin: B1 Neuroglobin
B8: WTred (B isomer): DTT-reduced wild-type human Ngb, B heme conformer (protein, UniProt Q9NPG2 1-151, looked up)
Neuroglobin: B1 Neuroglobin
modifications: DTT-reduced, heme B conformer
B9: WTred: wild-type human Ngb with reduced cysteines, both heme isomers (protein, UniProt Q9NPG2 1-151, looked up)
Neuroglobin: B1 Neuroglobin
modifications: reduced cysteines
notes: wild-type human Ngb with reduced cysteines, both heme isomers
B10: C120Sred (A isomer) (protein, UniProt Q9NPG2 1-151, looked up, variant C120S)
Neuroglobin: B1 Neuroglobin with C120S
modifications: reduced, heme A isomer

Legend:
[1] = for fraction of isomer remaining unbound (free) at equilibrium: end of reaction; for k off, off-rate of cyanide: estimated from K d and k obs; for Kd: read-out: K d, dissociation constant of cyanide, calculated from concentrations of free and bound species at equilibrium
[2] = design: method as in PMID 15020597; conditions: UV-visible study; cited from earlier work
[3] = Air reoxidation of the disulfide bridge followed by 1H NMR, cyanide omitted; format: physicochemical, human; conditions: no reducing agent, increase of WTox peak intensity
[4] = 500 μM KCN, 100 μM protein, 20 mM Tris-HCl pH 7.4, 298 K
[5] = calculated from T and 500 μM cyanide, 1/T = k obs[CN−]

Row | Molecule | T, time constant of cyanide binding (exponential fit of heme methyl peak intensities) [1, 4] [min] | k obs, second-order association rate constant for cyanide binding [1, 5] [M⁻¹ s⁻¹] | k obs, second-order association rate constant for cyanide binding [1] [M⁻¹ s⁻¹] | T, time constant of cyanide binding (exponential fit of heme methyl peak intensities) ([1]; pH 7.4) [min] | other results
1 | B1 | 19 | 1.75 | – | – | time after KCN injection at which CN− binding reaction was completed ([1]; judged from constant peak intensities, 500 μM KCN): 60 min
2 | B2 | – | – | 0.13 | 255 | –
3 | B3 | – | – | 1.85 | 18 | –
4 | B4 | 127 | 0.26 | – | – | fraction of isomer remaining unbound (free) at equilibrium ([1]; 500 μM KCN, 100 μM protein): about 42%; k off, off-rate of cyanide [1]: 3.9e-05 s⁻¹; Kd [1]: 153 µM
5 | B5 | – | – | 0.28 | 119 | –
6 | B6 | 97 | 0.34 | – | – | time after which CN− binding reaction was hardly finished ([1]; 500 μM KCN): ~5 h
7 | B7 | – | – | – | – | k on,CN, rate of cyanide binding to the pentacoordinate state ([1]; estimated here): 6700 M⁻¹ s⁻¹; fast cyanide binding rate (biphasic) [2]: 1.65 M⁻¹ s⁻¹; slow cyanide binding rate (biphasic) [2]: 0.37 M⁻¹ s⁻¹
8 | B8 | 265 | 0.12 | – | – | fraction of isomer remaining unbound (free) at equilibrium ([1]; 500 μM KCN, 100 μM protein): ~24%; k off, off-rate of cyanide [1]: 3.9e-05 s⁻¹; Kd [1]: 316 µM
9 | B9 | – | – | – | – | rate (time) of air reoxidation of the disulfide bridge [3]: about 60 h
10 | B10 | – | – | 0.24 | 138 | –
